Our source for the protein stability index values is the supplement of paper PMC10724198.

± gives the standard deviation of the averaged measurements.
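Also: PSI is a weighted mean of sequencing reads over stability bins, variants kept only with over 10 reads, mCherry proximal and sfGFP distal, peptide attached via GGGS linker.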

In this series the test system is Saccharomyces cerevisiae. The experiment in a line: protein stability index of tFT-peptide fusion (C-terminal peptide) (PSI (0-1 scale)); higher = more stable (slower turnover). The following applies: genetic background: wild type; temperature: 30 C. The protocol: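 Multiplexed protein stability (MPS) profiling in S. cerevisiae. Random 12-aa peptides (tFT-X12 library) are fused to the C-terminus of a sfGFP-mCherry tandem fluorescent timer, after mCherry and a GGGS linker. Cells are FACS-sorted into 8 mCherry/sfGFP bins and deep-sequenced. The protein stability index (PSI) is the read-weighted bin average, scaled from 0 (unstable) to 1 (stable). Only peptides with >10 reads are reported; cells were grown at 30 °C in SC-His with glucose.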
Take FSLPPAASDFPS: the protein stability index came to 0.685 ± 0.015.
Next, FSLPSVPCATYR: 0.678 ± 0.043; FSSRLVFFFAAP: 0.667 ± 0.036.
FSSSMFPPPLFV registered a protein stability index of 0.662 ± 0.0056.
With FSTTSFPPSFFP, the protein stability index amounted to 0.711 ± 0.042.
The figure for FSVLSPHPLHPL is 0.753 ± 0.093.
The figure for FSVPRFVSISGI is 0.6 ± 0.034; for FSVVGVFNIYGM it is 0.6214 ± 0.0023; for FTGACRCLDGPR it is 0.669 ± 0.055.
As to FTLLLFVPSLGS, the protein stability index is 0.618 ± 0.0082.
The figure for FTPSSLRGSLLA is 0.687 ± 0.021; for FTQDYRRKTMSH it is 0.604 ± 0.064.
FTYFLPPPALCS registered a protein stability index of 0.521 ± 0.02.
The figure for FVEIRGGGDRRM is 0.706 ± 0.013; for FVFPFHSRGVSQ it is 0.647 ± 0.015; for FVGACCGGSVEG it is 0.721 ± 0.036.
Next, FVGFVFSSAVGL: 0.684 ± 0.011; FVHEHQPRHEST: 0.677 ± 0.028.
The figure for FVIPLLRWGRTP is 0.663 ± 0.053; for FVPSSVFLFCLG it is 0.545 ± 0.023; for FVRWGWAVMLGG it is 0.571 ± 0.013.
For the sequence FVVRGVFVSGFW, the protein stability index came to 0.582 ± 0.019.
The figure for FWIRGVTRCVWC is 0.724 ± 0.053; for FWPPLTNLCTLL it is 0.687 ± 0.011; for FWVESGVFFFRP it is 0.667 ± 0.017.
The figure for FYRTRQSASPNV is 0.688 ± 0.046; for GAARGWLPGAGW it is 0.727 ± 0.04; for GADGGLVSLGVS it is 0.743 ± 0.026.
Next, GAECVSGWGGET: 0.709 ± 0.035; GAFFPGPVLFLT: 0.517 ± 0.013; GAFLPLTCDIIC: 0.598 ± 0.013.
For GAGASEGEPMED, the protein stability index amounted to 0.7 ± 0.046.
Next, GAGCRDSSRRRT: 0.687 ± 0.037; GAGGAGAGAGGG: 0.639 ± 0.0092; GAGRYVLNPCCS: 0.678 ± 0.034.
The figure for GAGVCEQGLALA is 0.649 ± 0.091.
Next, GAHRRDTYTVIG: 0.682 ± 0.011.
In turn, GAIVLMSCRNVI had a protein stability index of 0.634 ± 0.04.
Consider GAKGRGKERRGK, for which the protein stability index is 0.666 ± 0.051.
As to GAKQSSKRPRAS, the protein stability index was 0.719 ± 0.028.
The figure for GALEMNVCVPWL is 0.65 ± 0.017.
Next, GALFRRACSLLF: 0.697 ± 0.039; GALGGDSGKGGG: 0.677 ± 0.15; GALSDSLRVYTP: 0.688 ± 0.041.
GAPLFTYVIVRR showed a protein stability index of 0.621 ± 0.07.
The figure for GAPTYTGEPRTP is 0.742 ± 0.032; for GAPWPLAVVAGP it is 0.5995 ± 0.0013.
The sequence GASGRKPGCDRL returned a protein stability index of 0.67 ± 0.062.
Next, GASLFSEVMARE: 0.688 ± 0.027.
The figure for GASPTNSPLIYT is 0.679 ± 0.0077; for GASSPVEVGAAG it is 0.695 ± 0.022.
GASVSCQWFCGA: the protein stability index turned out to be 0.694 ± 0.015.
Next, GATLWGMAWGAR: 0.682 ± 0.012.
Next, GAVGSPVEFGGR: 0.688 ± 0.063.
The figure for GAVQGVALRGGS is 0.744 ± 0.1; for GAVRWGGAGVGV it is 0.73 ± 0.063.
In the case of GAWWVHGRRVGR, the protein stability index came out at 0.738 ± 0.046.
Next, GAYKVPSYGINY: 0.695 ± 0.021; GCAFVVLLSRGF: 0.604 ± 0.083; GCCAPWTFDDDL: 0.7117 ± 0.0065.
The figure for GCFYYWSVNVSY is 0.5599 ± 0.0036.
The figure for GCGAGEVWGVGG is 0.674 ± 0.014.
Consider GCGGRARAGAGG, for which the protein stability index was found to be 0.697 ± 0.089.
The figure for GCGGSREAVVNG is 0.662 ± 0.042.
The sequence GCGLVGGRWFRW returned a protein stability index of 0.67 ± 0.034.
The figure for GCIGGMAPWGGL is 0.664 ± 0.0097; for GCIPFELLECGF it is 0.663 ± 0.071.
Next, GCLGVRMFRVGG: 0.59 ± 0.015; GCMVFTGGKRVL: 0.672 ± 0.03; GCPIYSIIQIHR: 0.66818 ± 0.00019.
Next, GCRGVVVDGCGW: 0.593 ± 0.0073; GCRGVWGWVGRG: 0.74 ± 0.084; GCSFVLCRGSNA: 0.675 ± 0.034.
GCSNESVGVISG returned a protein stability index of 0.644 ± 0.024.
The figure for GCVGGGDWRFNV is 0.566 ± 0.027.
Next, GCVHDLGVISCQ: 0.639 ± 0.011; GCVVSGCGAGVV: 0.5755 ± 0.0057; GCWAFGWLLQYS: 0.574 ± 0.014.
The sequence GDERGAGRVGGS had a protein stability index of 0.626 ± 0.0064.
The figure for GDGVIVEVEGVN is 0.675 ± 0.071.
On to GDLKWVGLGVQR, for which the protein stability index is 0.687 ± 0.03.
Next, GDMVRVSYRGRR: 0.674 ± 0.053; GDPVKCSNSKDK: 0.685 ± 0.012; GDSPLQAPPSLL: 0.708 ± 0.1.
As to GDVGGLFYVSLL, the protein stability index stood at 0.7569 ± 0.0027.
In turn, GDVSYRWLRACT displayed a protein stability index of 0.6576 ± 0.00085.
The figure for GDWQGRADGAVI is 0.671 ± 0.071.
The figure for GEAGGEESEEGY is 0.676 ± 0.042; for GECAELSSVGGG it is 0.664 ± 0.035; for GEGGENRRNGTV it is 0.7 ± 0.12.
In turn, GEGHVRCCFSLR showed a protein stability index of 0.699 ± 0.013.
Turning to GEGRGDGEEGTG, the protein stability index was found to be 0.679 ± 0.035.
Consider GEISLSGRYRAV, for which the protein stability index was 0.691 ± 0.032.
Take GEKDGAVGRGEV: the protein stability index was 0.614 ± 0.02.
The figure for GERAGGPGRGRE is 0.683 ± 0.069.
The figure for GERGAYVVGVRW is 0.782 ± 0.019; for GEVGRGGEWGLD it is 0.711 ± 0.077.
The figure for GEVSSIVHIGPK is 0.684 ± 0.03.
As for GEWCGGVAVFWR, the protein stability index worked out at 0.693 ± 0.028.
The figure for GEWIDVSGCRRG is 0.805 ± 0.28.
Consider GEYRECVSWAGG, for which the protein stability index was 0.721 ± 0.07.
Next, GFALSFCFCFPL: 0.558 ± 0.029; GFDVGKRGRFGL: 0.635 ± 0.09.
As for GFFFALGPPFSG, the protein stability index was 0.695 ± 0.019.
GFGFWRNLFYWS: the protein stability index amounted to 0.657 ± 0.048.
Next, GFKIEVIQASGS: 0.683 ± 0.025.
The figure for GFPASVCGCMLW is 0.651 ± 0.047; for GFRCTVWGRAVI it is 0.637 ± 0.052; for GFSDCGLYRVSC it is 0.713 ± 0.0097.
GFSRLTPDQRQK gave a protein stability index of 0.7373 ± 0.0063.
Next, GFTGWGRRGLGG: 0.716 ± 0.076; GFTQLQNERVDG: 0.785 ± 0.1.
Next, GFVVGVGIVSWG: 0.6108 ± 0.0029; GFWWGCGGFCFC: 0.685 ± 0.023.
The figure for GFYAWAISYLWQ is 0.509 ± 0.0086; for GGAGHGAGAVWG it is 0.71 ± 0.037.
